Results published in doi:10.1101/2021.09.23.461563.

B1: C1r enzyme (activated form of human C1r) (enzyme)
chain 1: SIPIPQKLFGEVTSPLFPKPYPNNFETTTVITVPTGYRVKLVFQQFDLEPSEGCFYDYVKISADKKSLGRFCGQLGSPLGNPPGKKEFMSQGNKMLLTFHTDFSNEENGTIMFYKGFLAYYQAVDLDECASRSKSGEEDPQPQCQHLCHNYVGGYFCSCRPGYELQEDTHSCQAECSSELYTEASGYISSLEYPRSYPPDLRCNYSIRVERGLTLHLKFLEPFDIDDHQQVHCPYDQLQIYANGKNIGEFCGKQRPPDLDTSSNAVDLLFFTDESGDSRGWKLRYTTEIIKCPQPKTLDEFTIIQNLQPQYQFRDYFIATCKQGYQLIEGNQVLHSFTAVCQDDGTWHRAMPRCKIKDCGQPRNLPNGDFRYTTTMGVNTYKARIQYYCHEPYYKMQTRAGSRESEQGVYTCTAQGIWKNEQKGEKIPRCLPVCGKPVNPVEQRQR
chain 2: IIGGQKAKMGNFPWQVFTNIHGRGGGALLGDRWILTAAHTLYPKEHEAQSNASLDVFLGHTNVEELMKLGNHPIRRVSVHPDYRQDESYNFEGDIALLELENSVTLGPNLLPICLPDNDTFYDLGLMGYVSGFGVMEEKIAHDLRFVRLPVANPQACENWLRGKNRMDVFSQNMFCAGHPSLKQDACQGDSGGVFAVRDPNTDRWVATGIVSWGIGCSRGYGFYTKVLNYVDWIKKEMEEED
B2: C1s enzyme (activated form of human C1s) (enzyme)
chain 1: EPTMYGEILSPNYPQAYPSEVEKSWDIEVPEGYGIHLYFTHLDIELSENCAYDSVQIISGDTEEGRLCGQRSSNNPHSPIVEEFQVPYNKLQVIFKSDFSNEERFTGFAAYYVATDINECTDFVDVPCSHFCNNFIGGYFCSCPPEYFLHDDMKNCGVNCSGDVFTALIGEIASPNYPKPYPENSRCEYQIRLEKGFQVVVTLRREDFDVEAADSAGNCLDSLVFVAGDRQFGPYCGHGFPGPLNIETKSNALDIIFQTDLTGQKKGWKLRYHGDPMPCPKEDTPNSVWEPAKAKYVFRDVVQITCLDGFEVVEGRVGATSFYSTCQSNGKWSNSKLKCQPVDCGIPESIENGKVEDPESTLFGSVIRYTCEEPYYYMENGGGGEYHCAGNGSWVNEVLGPELPKCVPVCGVPREPFEEKQR
chain 2: IIGGSDADIKNFPWQVFFDNPWAGGALINEYWVLTAAHVVEGNREPTMYVGSTSVQTSRLAKSKMLTPEHVFIHPGWKLLEVPEGRTNFDNDIALVRLKDPVKMGPTVSPICLPGTSSDYNLMDGDLGLISGWGRTEKRDRAVRLKAARLPVAPLRKCKEVKVEKPTADAEAYVFTPNMICAGGEKGMDSCKGDSGGAFAVQDPNDKTKFYAAGLVSWGPQCGTYGLYTRVKNYVDWIMKTMQENSTPRED

Key:
[1] = biological target: GST-ErpB (Borrelia burgdorferi strain B31); test: SPR
[2] = biological target: GST-ErpQ (Borrelia burgdorferi strain B31); test: SPR

| Binder | Kd [1] [nM] | Kd [2] [nM] |
| --- | --- | --- |
| B1 | 100 | 97 |
| B2 | 3.9 | 4.5 |
